Experimental findings from PMC11791078, “RECQ4-MUS81 interaction contributes to telomere maintenance with implications to Rothmund-Thomson syndrome” (Nature Communications, 2025) are described below.

A value given as a limit tells only on which side of the number the result lay.

Assay [1] concerns the target GST-MUS81-EME1 complex (UniProt Q96NY9).
In assay [2] the target is T1, GST-MUS81-EME1 complex (UniProt Q96NY9 1-551; Q96AY2 1-570).
T1 construct: MUS81 subunit of the complex encoded by pGEX-6P-1-MUS81-HisEME1; EME1 subunit of the complex encoded by pGEX-6P-1-MUS81-HisEME1; Plasmid was a gift from Dr. Stephen West and Dr. Curtis Harris; the construct is not described further; source: E. coli Rossetta (DE3) pLysS, purified (Glutathione Sepharose, Heparin, MonoS)
T1 sequence (looked up) 1: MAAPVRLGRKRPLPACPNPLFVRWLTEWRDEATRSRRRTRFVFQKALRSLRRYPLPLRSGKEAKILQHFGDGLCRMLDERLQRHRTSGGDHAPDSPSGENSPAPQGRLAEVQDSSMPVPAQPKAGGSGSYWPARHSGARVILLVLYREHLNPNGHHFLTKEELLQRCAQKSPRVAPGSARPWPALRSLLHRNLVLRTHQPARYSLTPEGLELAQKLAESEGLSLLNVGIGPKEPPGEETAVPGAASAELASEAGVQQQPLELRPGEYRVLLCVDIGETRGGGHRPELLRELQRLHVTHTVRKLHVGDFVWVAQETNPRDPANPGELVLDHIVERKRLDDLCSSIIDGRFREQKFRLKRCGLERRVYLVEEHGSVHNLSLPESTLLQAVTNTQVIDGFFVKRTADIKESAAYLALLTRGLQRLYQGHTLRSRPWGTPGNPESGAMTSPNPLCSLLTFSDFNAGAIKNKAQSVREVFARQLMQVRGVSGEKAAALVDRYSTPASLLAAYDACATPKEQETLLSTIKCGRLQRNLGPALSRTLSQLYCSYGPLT
T1 sequence (looked up) 2: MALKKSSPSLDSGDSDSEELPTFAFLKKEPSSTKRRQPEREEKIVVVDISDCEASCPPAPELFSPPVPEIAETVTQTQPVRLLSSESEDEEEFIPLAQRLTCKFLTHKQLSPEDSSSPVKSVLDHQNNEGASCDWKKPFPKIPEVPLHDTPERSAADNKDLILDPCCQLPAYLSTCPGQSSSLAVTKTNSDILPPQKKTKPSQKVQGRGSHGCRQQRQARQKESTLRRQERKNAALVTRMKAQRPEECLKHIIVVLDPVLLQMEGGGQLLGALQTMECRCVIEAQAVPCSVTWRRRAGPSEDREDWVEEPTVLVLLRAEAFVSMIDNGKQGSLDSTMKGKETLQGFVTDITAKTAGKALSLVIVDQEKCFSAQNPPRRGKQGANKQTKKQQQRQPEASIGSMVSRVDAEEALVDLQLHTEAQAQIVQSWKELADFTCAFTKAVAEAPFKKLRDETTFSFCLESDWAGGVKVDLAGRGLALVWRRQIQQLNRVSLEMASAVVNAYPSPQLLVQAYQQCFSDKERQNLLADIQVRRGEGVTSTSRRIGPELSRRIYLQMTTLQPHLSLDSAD
Description: pull-down; purified GST-MUS81-EME1, GST-MUS81 or GST-MUS81 fragments (5 µg) incubated with MBP-tagged RECQ4 fragments (5 µg) and Glutathione Sepharose 4 Fast Flow beads in 1X K buffer with 150 mM KCl, 0.01% NP40, 1 mM DTT, 30 min, 4 °C; flow-through and bound fractions on SDS-PAGE, Coomassie blue. The settings on record: both partners purified.

B1: RECQ4 (WT), full-length (natural protein)
chain: MERLRDVRERLQAWERAFRRQRGRRPSQDDVEAAPEETRALYREYRTLKRTTGQAGGGLRSSESLPAAAEEAPEPRCWGPHLNRAATKSPQSTPGRSRQGSVPDYGQRLKANLKGTLQAGPALGRRPWPLGRASSKASTPKPPGTGPVPSFAEKVSDEPPQLPEPQPRPGRLQHLQASLSQRLGSLDPGWLQRCHSEVPDFLGAPKACRPDLGSEESQLLIPGESAVLGPGAGSQGPEASAFQEVSIRVGSPQPSSSGGEKRRWNEEPWESPAQVQQESSQAGPPSEGAGAVAVEEDPPGEPVQAQPPQPCSSPSNPRYHGLSPSSQARAGKAEGTAPLHIFPRLARHDRGNYVRLNMKQKHYVRGRALRSRLLRKQAWKQKWRKKGECFGGGGATVTTKESCFLNEQFDHWAAQCPRPASEEDTDAVGPEPLVPSPQPVPEVPSLDPTVLPLYSLGPSGQLAETPAEVFQALEQLGHQAFRPGQERAVMRILSGISTLLVLPTGAGKSLCYQLPALLYSRRSPCLTLVVSPLLSLMDDQVSGLPPCLKAACIHSGMTRKQRESVLQKIRAAQVHVLMLTPEALVGAGGLPPAAQLPPVAFACIDEAHCLSQWSHNFRPCYLRVCKVLRERMGVHCFLGLTATATRRTASDVAQHLAVAEEPDLHGPAPVPTNLHLSVSMDRDTDQALLTLLQGKRFQNLDSIIIYCNRREDTERIAALLRTCLHAAWVPGSGGRAPKTTAEAYHAGMCSRERRRVQRAFMQGQLRVVVATVAFGMGLDRPDVRAVLHLGLPPSFESYVQAVGRAGRDGQPAHCHLFLQPQGEDLRELRRHVHADSTDFLAVKRLVQRVFPACTCTCTRPPSEQEGAVGGERPVPKYPPQEAEQLSHQAAPGPRRVCMGHERALPIQLTVQALDMPEEAIETLLCYLELHPHHWLELLATTYTHCRLNCPGGPAQLQALAHRCPPLAVCLAQQLPEDPGQGSSSVEFDMVKLVDSMGWELASVRRALCQLQWDHEPRTGVRRGTGVLVEFSELAFHLRSPGDLTAEEKDQICDFLYGRVQARERQALARLRRTFQAFHSVAFPSCGPCLEQQDEERSTRLKDLLGRYFEEEEGQEPGGMEDAQGPEPGQARLQDWEDQVRCDIRQFLSLRPEEKFSSRAVARIFHGIGSPCYPAQVYGQDRRFWRKYLHLSFHALVGLATEELLQVAR
Take B1: the stimulation of MUS81-EME1 (0.5 nM) cleavage of 3'-flap DNA (6 nM), 20 min at 37 °C; RECQ4 5, 25 and 50 nM in assay [1] is > 10 fold.

B2: MBP-RECQ4 (1-400) (domain or fragment, UniProt O94761 1-400, looked up)
chain: MERLRDVRERLQAWERAFRRQRGRRPSQDDVEAAPEETRALYREYRTLKRTTGQAGGGLRSSESLPAAAEEAPEPRCWGPHLNRAATKSPQSTPGRSRQGSVPDYGQRLKANLKGTLQAGPALGRRPWPLGRASSKASTPKPPGTGPVPSFAEKVSDEPPQLPEPQPRPGRLQHLQASLSQRLGSLDPGWLQRCHSEVPDFLGAPKACRPDLGSEESQLLIPGESAVLGPGAGSQGPEASAFQEVSIRVGSPQPSSSGGEKRRWNEEPWESPAQVQQESSQAGPPSEGAGAVAVEEDPPGEPVQAQPPQPCSSPSNPRYHGLSPSSQARAGKAEGTAPLHIFPRLARHDRGNYVRLNMKQKHYVRGRALRSRLLRKQAWKQKWRKKGECFGGGGATVTTK
notes: RECQ4 residues 1-400; cloned into pMAL-c2x from pET32a-RECQ4-9XHis; also called fragment (1-400); RECQ4 truncation (1-400 aa); source: E. coli BL21(DE3) pLysS, purified (His-Select nickel, amylose, MonoS)
As for B2, the binding result in assay [2] is on record as “binds”.

B3: MBP-RECQ4 (1-492) (domain or fragment, UniProt O94761 1-492, looked up)
chain: MERLRDVRERLQAWERAFRRQRGRRPSQDDVEAAPEETRALYREYRTLKRTTGQAGGGLRSSESLPAAAEEAPEPRCWGPHLNRAATKSPQSTPGRSRQGSVPDYGQRLKANLKGTLQAGPALGRRPWPLGRASSKASTPKPPGTGPVPSFAEKVSDEPPQLPEPQPRPGRLQHLQASLSQRLGSLDPGWLQRCHSEVPDFLGAPKACRPDLGSEESQLLIPGESAVLGPGAGSQGPEASAFQEVSIRVGSPQPSSSGGEKRRWNEEPWESPAQVQQESSQAGPPSEGAGAVAVEEDPPGEPVQAQPPQPCSSPSNPRYHGLSPSSQARAGKAEGTAPLHIFPRLARHDRGNYVRLNMKQKHYVRGRALRSRLLRKQAWKQKWRKKGECFGGGGATVTTKESCFLNEQFDHWAAQCPRPASEEDTDAVGPEPLVPSPQPVPEVPSLDPTVLPLYSLGPSGQLAETPAEVFQALEQLGHQAFRPGQERAVMRI
notes: cloned into pMAL-c2x from pET32a-RECQ4-9XHis; source: E. coli BL21(DE3) pLysS, purified (His-Select nickel, amylose)
B3: the binding result in assay [2] is “binds”.
